One substance from article PMC11295067 can be followed below.

For experiment [1], the target named is human Gq heterotrimer (human) (UniProt P50148).
The target in experiment [2] is human Gi heterotrimer (human) (UniProt P63096).
Chain of human Gi heterotrimer (human) (P63096 whole entry, looked up, one chain of several): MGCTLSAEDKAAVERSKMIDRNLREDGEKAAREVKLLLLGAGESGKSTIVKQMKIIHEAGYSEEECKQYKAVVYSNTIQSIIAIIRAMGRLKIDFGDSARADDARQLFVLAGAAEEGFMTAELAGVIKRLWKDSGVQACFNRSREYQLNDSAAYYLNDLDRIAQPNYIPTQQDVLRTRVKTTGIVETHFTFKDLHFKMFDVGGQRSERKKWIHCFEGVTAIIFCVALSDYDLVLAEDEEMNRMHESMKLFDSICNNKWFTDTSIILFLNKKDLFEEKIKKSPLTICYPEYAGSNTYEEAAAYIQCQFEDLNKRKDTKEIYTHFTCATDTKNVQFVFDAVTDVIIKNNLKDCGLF

Chain of human Gq heterotrimer (human) (P50148 whole entry, looked up, one chain of several): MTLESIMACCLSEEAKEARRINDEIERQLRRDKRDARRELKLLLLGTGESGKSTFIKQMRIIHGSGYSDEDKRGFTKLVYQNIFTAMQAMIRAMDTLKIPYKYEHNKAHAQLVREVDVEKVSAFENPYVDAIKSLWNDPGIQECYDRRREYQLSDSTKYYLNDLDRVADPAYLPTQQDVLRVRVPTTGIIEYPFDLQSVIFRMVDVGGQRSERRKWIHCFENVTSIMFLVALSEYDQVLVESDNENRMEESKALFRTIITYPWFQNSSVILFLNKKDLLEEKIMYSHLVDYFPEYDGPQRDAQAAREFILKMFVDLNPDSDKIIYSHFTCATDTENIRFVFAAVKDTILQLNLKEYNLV

In experiment [1], “Jumping Spider Rhodopsin-1 (JSR1) reconstituted with 9-cis retinal (receptor)” showed a GTPase-Glo assay: GTP depletion by Gq heterotrimer with JSR1/9-cis retinal, after illumination of 44% and a GTPase-Glo assay: GTP depletion by Gq heterotrimer with JSR1/9-cis retinal, without illumination of 7%. In experiment [2], this substance showed a GTPase-Glo assay: GTP depletion by Gi heterotrimer with JSR1/9-cis retinal, after illumination of 92% and a GTPase-Glo assay: GTP depletion by Gi heterotrimer with JSR1/9-cis retinal, without illumination of 57%.
